Data on one substance can be found in PMC2806920.

Experiment [1] has as its target Truncated recombinant LRRK2 wild-type (aa 970-2527) (human) (UniProt Q5S007).
In experiment [2] the target is Truncated recombinant LRRK2-G2019S (aa 970-2527) (human) (UniProt Q5S007).

On to “4E-BP (eukaryotic initiation factor 4E (eIF4E)-binding protein), His6-tagged 4E-BP1 (from UniProt Q13541 1-118) (natural protein)”, for which the Km for 4E-BP of its phosphorylation by LRRK2 (in vitro kinase assay, 33P incorporation, 12 nM LRRK2, 1.5-12 µM 4E-BP, Michaelis-Menten fit) in experiment [1] stood at 2.69 µM. Besides, the Km for 4E-BP of its phosphorylation by LRRK2-G2019S (in vitro kinase assay, 33P incorporation, 12 nM LRRK2, 1.5-12 µM 4E-BP, Michaelis-Menten fit) in experiment [2] worked out at 2.87 µM.
